Results taken from patent US20260152571A1 (BIOCYTOGEN PHARMACEUTICALS BEIJING, published 2026).
Substitutions are numbered along the chain they refer to. In names and notes the source's numbering stands.

B1: 1G7-IgG1-SI (antibody, V domains shown)
VH: QVQLVESGGGVVRPGGSLRLSCTASGFTFDDYGMTWVRQAPGKGLEWVSGINWNGGSTGYADSVKGRFTISRDNAKNSLFLQMNSLRAEDTALYYCARDQGIAVVGTHYYYYYGMDVWGQGTAVTVSS
VL: EIVLTQSPATLSLSPGERATLSCRASQSFSSYLAWYQQKPGQAPRLLIFDTSNRATGIPARFSGSGSGTDFTLTISSLEPEDFAVYYCQQRSNWPLTFGGGTKVEIK
notes: VH and VL joined to IgG1 constant regions with SI mutations (S239D and I332E, EU numbering) in the Fc
B2: 4F10-IgG1-SI (antibody, V domains shown)
VH: QVQLQESGPGLVKPSETLSLTCTVSGGSISNYYWSWIRQPPGKGLEWIGYIYYSGSTNYNPSLKSRVNISVDTSKSQVSLKLNSVIAADTAVYYCARHEDYWYFDLWGRGTLVTVSS
VL: DIQLTQSPSSLSASIRDRVTITCRASQDINNYLAWFQQKPGKAPKSLIYAVSSLESGVPSKFSGSGSGTDFTLTISSLQPEDFATYFCQQYNSYPFTFGPGTKVEIK
notes: as for B1
B3: 7B9-IgG1-SI (antibody, V domains shown)
VH: EVQLVESGGGVVQPGGSLRLSCAASGFTFDDYAMHWVRQAPGKGLEWVSLISGDDGSTYYADSMKGRITISRDNSKNSLYLQMNSLRTEDTAMYYCAKASYGSGSYLYNYGMDVWGQGTTVTVFS
VL: DIQLTQSPSSLSASVGDRVTITCQASQDIINYLNWYQQKPGKAPKLLIYDTSNLETGVPSRFSGSGSGTDFAFTINSLQPEDIATYYCQQFVNLPLTFGGGTKVEIK
notes: VH and VL joined to IgG1 constant regions with SI mutations (S239D and I332E, EU numbering) in the Fc; also called 7B9-IgGI-SI
B4: 1E9-IgG1-SI (antibody, V domains shown)
VH: EVQMVESGGDVVRPGGSLRLSCAASGFMFDDYGMSWVRHVQGKGLEWVSGIDWNGDSTGYADSVKGRFTISRDNAKNSLYLQMNSLRAEDTALYYCARDQGIAVAGPYNYYYGMDVWGQGTTVTVSS
VL: B1 VL with F29V, Q38E, T51A, L96F, G100P, K103R
notes: VH and VL joined to IgG1 constant regions with SI mutations (S239D and I332E, EU numbering) in the Fc; also called 1E9-IgGI-SI
B5: P01199-IgG1-SI (antibody, V domains shown)
VH: QVQLVESGGGLVKPGGSLRLSCAASGFTFSNAWMNWVRQTPGKGLEWVGRIKSKTDGGTKDYAAPVKGRFTISRDDSKNTLYLQMNSLNTEDTAVYYCSTDPRIAVTGTDYYYGMDVWGQGTTVTVSS
VL: not shown
notes: as for B1
B6: P01264-IgG1-SI (antibody, V domains shown)
VH: B5 VH with Q1E, T40A, K60T, D75H, N89K, S99A
VL: DIVMTQTPSFLSASVGDRVTITCRASQDISNYLNWYQQKPGKAPKLLIYDASNLETGVPSRFSGSGSGTDFTFTISSLQPEDIATYYCQQYDNLPITFGQGTRLEIK
notes: as for B1
B7: 3E6-IgG1-SI (antibody, V domains shown)
VH: EVQLVESGGGVVRPGGSLRLSCAASGFTFDDSGMSWVRQGPGKGLEWVSGINWNGGSTGYADSVKGRFTISRDNAKNSLYLQMNSLRAEDTALYYCARDPGIAVAGPYYYYYYGMDVWGQGTTVTVSS
VL: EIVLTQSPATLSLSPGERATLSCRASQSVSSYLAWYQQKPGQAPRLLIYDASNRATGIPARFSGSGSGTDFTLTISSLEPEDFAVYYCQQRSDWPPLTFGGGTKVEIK
notes: as for B1
B8: ESK1 analog (antibody, V domains shown)
VH: QMQLVQSGAEVKEPGESLRISCKGSGYSFTNFWISWVRQMPGKGLEWMGRVDPGYSYSTYSPSFQGHVTISADKSTSTAYLQWNSLKASDTAMYYCARVQYSGYYDWFDPWGQGTLVTVSS
VL: not shown
notes: Fully human TCR-like monoclonal IgG1 antibody
B9: 3A6-IgG1-SI (antibody, V domains shown)
VH: QVQLQESGPGMVKPSETLSLTCTVSGGSISYNYWSWIRQPPGKGLEWIGYIYHSGTTKYNPSLKSRVTMSVDTSKNHFSLKLNSVTAADTAVYYCARHEDYWFFDLWGRGTLVTVSS
VL: DIQMTQSPSSLSASVGDRVTITCRASQGISNYLVWFQQKPGKAPKSLIYAASILQSGVPSKFSGSGSGTDFTLTINSLQPEDFATYYCQQYNTYPFTFGPGTKVDIK
notes: as for B1
B10: P01218-IgG1-SI (antibody, V domains shown)
VH: EVQLVESGGGVVQPGRSLRLSCAASGFTFSSYAMHWVRQAPGKGLEWVAVISYDGSNKYYADSVKGRFTISRDNSKNTLYLQMNSLRAEDTAVYYCARAPYYGSGSYYNSYYYYHGMDVWGQGTTVTVSS
VL: AIWMTQSPSSLSASVGDRVTITCQASQDISNYLNWYQQKPGKAPNLLIYDASNLETGVPSRFSGSGSGTDFTLTISSLQPEDIATYYCQQYDNLPLTFGGGTKVEIK
notes: VH and VL joined to IgG1 constant regions with SI mutations (S239D and I332E, EU numbering) in the Fc; also called P01218-IgGI-SI

These binders were tested against WT1RMF/HLA-A2 complex on cells (human) (assay: flow cytometry (MFI), T2 cells pulsed with 50 µM WT1RMF, antibody titrated).

| EC50 (read off the curve) | Binder |
| --- | --- |
| ~1 nM | B1 |

What follows are binders tested against WT1RMF/HLA-A2 complex on cells (human) (assay: flow cytometry, T2 cells pulsed with 25 µM WT1RMF, antibody 10 µg/mL).

| Percentage of Positive Cells (%) | Binder |
| --- | --- |
| 95.6% | B2 |
| 93% | B3 |
| 92.4% | B1 |
| 94.9% | B4 |
| 88.5% | B5 |
| 75.4% | B6 |
| 30.9% | B7 |
| 88.8% | B8 |
| 70.3% | B9 |
| 92.8% | B10 |

What follows are binders tested against His-tagged WT1RMF/HLA-A2 complex (human) (assay: SPR, Biacore 8K; antibody captured on Protein A chip, His-tagged complex as analyte; 1:1 Langmuir fit).

| Kd | koff | kon | Binder |
| --- | --- | --- | --- |
| 0.43 nM | 0.000664 s⁻¹ | 1.54e+06 M⁻¹ s⁻¹ | B2 |
| 15.3 nM | 0.00185 s⁻¹ | 121000 M⁻¹ s⁻¹ | B3 |
| 9.49 nM | 0.00151 s⁻¹ | 159000 M⁻¹ s⁻¹ | B1 |
| 22.4 nM | 0.00164 s⁻¹ | 73100 M⁻¹ s⁻¹ | B4 |
| 67.4 nM | 0.00987 s⁻¹ | 147000 M⁻¹ s⁻¹ | B5 |
| 121 nM | 0.0177 s⁻¹ | 146000 M⁻¹ s⁻¹ | B6 |
| 30.3 nM | 0.00451 s⁻¹ | 149000 M⁻¹ s⁻¹ | B7 |
| 7100 nM | 0.0204 s⁻¹ | 2870 M⁻¹ s⁻¹ | B9 |
| 16.1 nM | 0.000902 s⁻¹ | 56200 M⁻¹ s⁻¹ | B10 |

What follows are binders tested against WT1RMF/HLA-A2 complex on cells (human) (assay: flow cytometry, T2 cells pulsed with 50 µM WT1RMF, antibody titrated 0.00096-45 nM, MFI curve).

| EC50 | Binder |
| --- | --- |
| 0.42 nM | B2 |
| 0.553 nM | B3 |
| 0.337 nM | B1 |
| 0.798 nM | B4 |
| 0.896 nM | B6 |
| 2.02 nM | B7 |
| 4.04 nM | B8 |
| 2.26 nM | B9 |
| 3.48 nM | B10 |
